Experiment [1] addresses hMPV 130-BV (human metapneumovirus). The experiment can be described thus: biolayer interferometry, hMPV 130-BV on anti-penta-HIS biosensors; unit inferred.
For experiment [2], the target named is monomeric hMPV B2 F protein treated with trypsin (human metapneumovirus). The experiment can be described thus: ELISA on coated antigen, mAb titrated; panel hMPV B2 F monomer (trypsin), key 6.
In experiment [3] the target is trimeric hMPV B2 F protein treated with trypsin (human metapneumovirus). Kind of experiment: ELISA on coated antigen, mAb titrated; panel hMPV B2 F trimer (trypsin), key 6. (In an ELISA, binding on a coated surface is turned into a signal by an enzyme label.)
The target of experiment [4] is pre-fusion RSV F protein A2 SC-TM (respiratory syncytial virus) (UniProt P03420). The experiment can be described thus: ELISA on coated antigen, mAb titrated; EC50 box, key 6.

The values that follow come from US20230085439A1.

Usually Kd stands for the free concentration of one partner at which half of the binding sites on the other are occupied at equilibrium, for simple one-to-one binding. Substance 101F Fab came in with an equilibrium dissociation constant (Kd) in experiment [1] of 53 nM.

Broadly, the EC50 is the concentration at which the effect is half-maximal. Turning to DS7 (antibody), the EC50 in experiment [2] stood at 0.1 µg/mL; in experiment [3], 0.18 µg/mL.

MPE8 (antibody): in experiment [4], the EC50 was 0.087 µg/mL.
